Molecular target: T1, GST-MBS 683-866 (UniProt O14974 683-866)
T1 sequence (looked up): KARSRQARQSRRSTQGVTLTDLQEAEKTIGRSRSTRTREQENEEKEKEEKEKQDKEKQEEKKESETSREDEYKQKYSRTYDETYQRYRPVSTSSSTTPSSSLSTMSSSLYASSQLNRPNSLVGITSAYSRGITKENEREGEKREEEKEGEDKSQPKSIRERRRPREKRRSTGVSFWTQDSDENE
Assay: pull-down

B1: Myc-tagged ROCK2 (natural protein, UniProt O75116 1-1388, looked up)
chain: MSRPPPTGKMPGAPETAPGDGAGASRQRKLEALIRDPRSPINVESLLDGLNSLVLDLDFPALRKNKNIDNFLNRYEKIVKKIRGLQMKAEDYDVVKVIGRGAFGEVQLVRHKASQKVYAMKLLSKFEMIKRSDSAFFWEERDIMAFANSPWVVQLFYAFQDDRYLYMVMEYMPGGDLVNLMSNYDVPEKWAKFYTAEVVLALDAIHSMGLIHRDVKPDNMLLDKHGHLKLADFGTCMKMDETGMVHCDTAVGTPDYISPEVLKSQGGDGFYGRECDWWSVGVFLYEMLVGDTPFYADSLVGTYSKIMDHKNSLCFPEDAEISKHAKNLICAFLTDREVRLGRNGVEEIRQHPFFKNDQWHWDNIRETAAPVVPELSSDIDSSNFDDIEDDKGDVETFPIPKAFVGNQLPFIGFTYYRENLLLSDSPSCRETDSIQSRKNEESQEIQKKLYTLEEHLSNEMQAKEELEQKCKSVNTRLEKTAKELEEEITLRKSVESALRQLEREKALLQHKNAEYQRKADHEADKKRNLENDVNSLKDQLEDLKKRNQNSQISTEKVNQLQRQLDETNALLRTESDTAARLRKTQAESSKQIQQLESNNRDLQDKNCLLETAKLKLEKEFINLQSALESERRDRTHGSEIINDLQGRICGLEEDLKNGKILLAKVELEKRQLQERFTDLEKEKSNMEIDMTYQLKVIQQSLEQEEAEHKATKARLADKNKIYESIEEAKSEAMKEMEKKLLEERTLKQKVENLLLEAEKRCSLLDCDLKQSQQKINELLKQKDVLNEDVRNLTLKIEQETQKRCLTQNDLKMQTQQVNTLKMSEKQLKQENNHLMEMKMNLEKQNAELRKERQDADGQMKELQDQLEAEQYFSTLYKTQVRELKEECEEKTKLGKELQQKKQELQDERDSLAAQLEITLTKADSEQLARSIAEEQYSDLEKEKIMKELEIKEMMARHKQELTEKDATIASLEETNRTLTSDVANLANEKEELNNKLKDVQEQLSRLKDEEISAAAIKAQFEKQLLTERTLKTQAVNKLAEIMNRKEPVKRGNDTDVRRKEKENRKLHMELKSEREKLTQQMIKYQKELNEMQAQIAEESQIRIELQMTLDSKDSDIEQLRSQLQALHIGLDSSSIGSGPGDAEADDGFPESRLEGWLSLPVRNNTKKFGWVKKYVIVSSKKILFYDSEQDKEQSNPYMVLDIDKLFHVRPVTQTDVYRADAKEIPRIFQILYANEGESKKEQEFPVEPVGEKSNYICHKGHEFIPTLYHFPTNCEACMKPLWHMFKPPPALECRRCHIKCHKDHMDKKEEIIAPCKVYYDISTAKNLLLLANSTEEQQKWVSRLVKKIPKKPPAPDPFARSSPRTSMKIQQNQSIRRPSRQLAPNKPS
fold bound relative to mycROCK1: 2 fold

— PMC2649695 (Circulation research, 2009)
